In PMC6441084:

Biological target: microtubules (MTs) polymerised from purified tubulin (Cytoskeleton, # T240) (UniProt P02550)

“Diaph2 mutant lacking the FH2-domain (ΔFH2-Diaph2), GST-fusion protein (from UniProt O60879 1-1101) (natural protein)” showed an MT-polymerization (turbidity at 340 nm, no taxol; 2 µM tubulin, 0.2 µM Diaph2 protein), fold against the control of 6 fold.
